These results are taken from paper doi:10.1101/2025.10.27.684941.

Experiment [1] concerns the target Venus-PDZ1 (ZO-1) (human) (UniProt Q07157). Description: co-IP.
Experiment [2] concerns the target biotinylated C-terminal Cx36 peptide, D317A (UniProt O54851). Description: pull-down.
The target of experiment [3] is biotinylated C-terminal Cx36 peptide, D317F (UniProt O54851). Description: pull-down.

UniProt Q07157, sequence (Q07157 whole entry): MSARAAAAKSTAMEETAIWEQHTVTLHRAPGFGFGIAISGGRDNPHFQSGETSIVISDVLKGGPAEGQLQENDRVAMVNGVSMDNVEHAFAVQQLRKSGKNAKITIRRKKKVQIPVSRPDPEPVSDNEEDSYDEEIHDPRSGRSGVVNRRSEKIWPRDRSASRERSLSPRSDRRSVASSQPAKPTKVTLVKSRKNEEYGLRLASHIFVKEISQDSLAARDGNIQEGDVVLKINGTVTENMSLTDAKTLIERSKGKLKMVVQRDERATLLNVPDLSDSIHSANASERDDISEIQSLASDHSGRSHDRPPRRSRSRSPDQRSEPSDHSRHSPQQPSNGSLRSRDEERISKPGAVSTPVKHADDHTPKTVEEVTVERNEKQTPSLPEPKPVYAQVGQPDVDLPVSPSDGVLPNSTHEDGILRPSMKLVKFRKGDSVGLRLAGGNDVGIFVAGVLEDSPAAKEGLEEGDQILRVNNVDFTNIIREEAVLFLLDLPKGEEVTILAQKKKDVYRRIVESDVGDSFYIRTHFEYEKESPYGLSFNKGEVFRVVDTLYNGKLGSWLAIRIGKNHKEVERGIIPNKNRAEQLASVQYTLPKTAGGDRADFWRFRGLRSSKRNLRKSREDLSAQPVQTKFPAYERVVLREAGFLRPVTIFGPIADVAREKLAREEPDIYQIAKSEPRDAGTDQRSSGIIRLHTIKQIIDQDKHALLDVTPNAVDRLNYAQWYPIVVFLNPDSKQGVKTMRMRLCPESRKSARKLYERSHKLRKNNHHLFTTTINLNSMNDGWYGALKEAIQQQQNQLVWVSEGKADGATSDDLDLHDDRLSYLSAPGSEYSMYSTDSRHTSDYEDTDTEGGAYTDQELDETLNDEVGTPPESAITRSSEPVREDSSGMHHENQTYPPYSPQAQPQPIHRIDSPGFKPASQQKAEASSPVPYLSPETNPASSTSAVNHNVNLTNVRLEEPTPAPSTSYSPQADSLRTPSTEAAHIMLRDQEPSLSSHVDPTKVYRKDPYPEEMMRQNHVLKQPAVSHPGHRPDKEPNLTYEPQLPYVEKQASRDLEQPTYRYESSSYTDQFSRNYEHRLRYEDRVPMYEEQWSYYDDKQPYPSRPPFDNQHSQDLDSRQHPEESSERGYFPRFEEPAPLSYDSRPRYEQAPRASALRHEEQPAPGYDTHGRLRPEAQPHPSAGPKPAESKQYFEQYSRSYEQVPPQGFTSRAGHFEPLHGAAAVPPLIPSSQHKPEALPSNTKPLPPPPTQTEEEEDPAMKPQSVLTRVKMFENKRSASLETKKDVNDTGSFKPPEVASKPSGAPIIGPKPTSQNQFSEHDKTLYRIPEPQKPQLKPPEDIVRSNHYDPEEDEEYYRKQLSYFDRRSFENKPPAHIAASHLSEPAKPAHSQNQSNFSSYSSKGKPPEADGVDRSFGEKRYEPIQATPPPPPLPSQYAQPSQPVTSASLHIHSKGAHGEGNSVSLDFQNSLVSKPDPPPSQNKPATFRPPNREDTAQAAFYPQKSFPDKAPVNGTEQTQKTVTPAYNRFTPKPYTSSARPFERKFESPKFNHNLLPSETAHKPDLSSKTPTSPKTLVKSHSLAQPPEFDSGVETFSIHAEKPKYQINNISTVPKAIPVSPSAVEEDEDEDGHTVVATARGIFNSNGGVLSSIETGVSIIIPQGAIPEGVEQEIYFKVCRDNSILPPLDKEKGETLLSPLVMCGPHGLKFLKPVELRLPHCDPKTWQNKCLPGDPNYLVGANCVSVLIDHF

In experiment [1], “Cx36 D317A (from UniProt O54851 1-321) (natural protein)” registered a fold increase in binding over wild type Cx36 of 5 to 7 times.

In experiment [1], “Cx36 D317F (from UniProt O54851 1-321) (natural protein)” displayed a fold increase in binding over wild type Cx36 of 5 to 7 times.

Turning to “His-Venus-PDZ1 (ZO-1) (domain or fragment)”, the fold increase in binding over the wild-type peptide in experiment [2] turned out to be 5 fold; in experiment [3] it was 10 fold.
